T1: Cyk3, Q07533
T1 sequence (Q07533 1-83, looked up): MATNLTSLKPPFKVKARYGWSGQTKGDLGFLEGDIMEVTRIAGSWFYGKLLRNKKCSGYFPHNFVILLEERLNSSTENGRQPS

T2: Bud14, P27637
T2 sequence (P27637 247-328, looked up): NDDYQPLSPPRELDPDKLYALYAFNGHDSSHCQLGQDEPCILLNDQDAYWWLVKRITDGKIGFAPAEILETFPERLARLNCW

T3: Sla1-2, P32790
T3 sequence (P32790 60-140, looked up): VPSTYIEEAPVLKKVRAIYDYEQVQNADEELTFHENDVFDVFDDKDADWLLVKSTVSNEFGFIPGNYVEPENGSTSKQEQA

T4: Lsb3, P43603
T4 sequence (P43603 385-451, looked up): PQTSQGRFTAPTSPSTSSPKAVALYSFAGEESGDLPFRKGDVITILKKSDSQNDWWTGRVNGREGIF

T5: Myo5, Q04439
T5 sequence (Q04439 1072-1160, looked up): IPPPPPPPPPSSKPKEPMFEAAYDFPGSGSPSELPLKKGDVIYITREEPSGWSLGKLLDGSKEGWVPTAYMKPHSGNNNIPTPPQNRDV

T6: Pex13, P80667
T6 sequence (P80667 295-386, looked up): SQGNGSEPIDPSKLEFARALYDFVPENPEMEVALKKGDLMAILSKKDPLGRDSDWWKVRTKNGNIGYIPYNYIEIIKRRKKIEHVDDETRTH

T7: Cdc25, P04821
T7 sequence (P04821 50-136, looked up): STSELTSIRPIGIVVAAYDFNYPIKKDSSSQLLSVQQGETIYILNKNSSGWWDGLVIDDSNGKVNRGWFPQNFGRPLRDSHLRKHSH

T8: Sla1-3, P32790
T8 sequence (P32790 344-424, looked up): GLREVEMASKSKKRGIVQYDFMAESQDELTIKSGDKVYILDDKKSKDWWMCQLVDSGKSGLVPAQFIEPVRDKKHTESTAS

T9: Bzz1-1, P38822
T9 sequence (P38822 478-572, looked up): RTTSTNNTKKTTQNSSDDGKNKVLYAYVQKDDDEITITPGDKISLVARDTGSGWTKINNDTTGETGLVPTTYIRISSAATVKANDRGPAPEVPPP

T10: Hof1, Q05080
T10 sequence (Q05080 590-669, looked up): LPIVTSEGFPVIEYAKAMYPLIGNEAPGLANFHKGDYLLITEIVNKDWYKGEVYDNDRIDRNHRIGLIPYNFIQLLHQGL

T11: Bzz1-2, P38822
T11 sequence (P38822 568-633, looked up): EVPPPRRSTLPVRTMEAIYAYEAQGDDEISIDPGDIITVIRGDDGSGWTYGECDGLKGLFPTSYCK

T12: Lsb4, P32793
T12 sequence (P32793 402-468, looked up): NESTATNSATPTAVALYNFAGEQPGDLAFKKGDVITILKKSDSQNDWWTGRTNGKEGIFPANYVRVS

T13: Boi2, P39969
T13 sequence (P39969 32-116, looked up): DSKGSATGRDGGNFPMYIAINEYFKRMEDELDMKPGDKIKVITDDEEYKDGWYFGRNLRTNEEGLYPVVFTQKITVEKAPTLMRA

T14: Pin3, Q06449
T14 sequence (Q06449 53-122, looked up): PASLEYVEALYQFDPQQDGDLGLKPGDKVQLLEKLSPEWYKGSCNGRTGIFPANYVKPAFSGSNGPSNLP

T15: Boi1, P38041
T15 sequence (P38041 1-86, looked up): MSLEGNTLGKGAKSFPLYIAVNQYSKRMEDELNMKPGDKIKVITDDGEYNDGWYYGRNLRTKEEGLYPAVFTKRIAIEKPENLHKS

T16: Abp1, P15891
T16 sequence (P15891 535-592, looked up): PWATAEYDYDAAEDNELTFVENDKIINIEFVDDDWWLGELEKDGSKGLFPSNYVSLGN

T17: Bbc1, P47068
T17 sequence (P47068 1-78, looked up): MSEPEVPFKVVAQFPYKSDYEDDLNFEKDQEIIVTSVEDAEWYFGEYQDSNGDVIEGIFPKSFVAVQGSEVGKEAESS

T18: Nbp2, Q12163
T18 sequence (Q12163 103-180, looked up): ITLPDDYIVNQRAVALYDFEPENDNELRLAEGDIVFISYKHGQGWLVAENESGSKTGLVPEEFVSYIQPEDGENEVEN

T19: Fus1, P11710
T19 sequence (P11710 432-512, looked up): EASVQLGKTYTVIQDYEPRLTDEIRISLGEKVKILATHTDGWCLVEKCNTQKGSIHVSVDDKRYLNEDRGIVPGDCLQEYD

T20: Lsb1, P53281
T20 sequence (P53281 45-122, looked up): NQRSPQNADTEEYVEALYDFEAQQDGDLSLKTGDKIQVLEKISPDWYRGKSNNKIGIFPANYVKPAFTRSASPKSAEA

T21: Hse1, P38753
T21 sequence (P38753 208-285, looked up): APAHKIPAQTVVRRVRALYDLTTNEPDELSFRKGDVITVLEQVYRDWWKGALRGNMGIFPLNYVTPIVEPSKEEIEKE


Key:
Experiment in all cases: SPOT array
Rvs167, P39743 = conditions: median of control spots 2707
Rvs167, P39743, sequence (P39743 419-482): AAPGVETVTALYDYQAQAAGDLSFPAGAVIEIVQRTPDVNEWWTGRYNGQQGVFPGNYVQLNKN

GST = conditions: median of control spots 978
Myo3, P36006 = conditions: median of control spots 468
Sho1, P40073 = conditions: median of control spots 1148
Sho1, P40073, sequence (P40073 287-367): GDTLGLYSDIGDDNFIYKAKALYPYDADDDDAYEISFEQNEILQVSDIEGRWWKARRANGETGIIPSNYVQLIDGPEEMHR

Bem1-1, P29366 = conditions: median of control spots 4282
Bem1-1, P29366, sequence (P29366 55-141): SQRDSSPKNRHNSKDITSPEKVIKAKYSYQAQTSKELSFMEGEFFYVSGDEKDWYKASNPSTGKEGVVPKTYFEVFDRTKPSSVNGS

Cyk3, Q07533 = target: T1, Cyk3, Q07533; conditions: median of control spots 1451
Bud14, P27637 = target: T2, Bud14, P27637; conditions: median of control spots 956
Sla1-2, P32790 = target: T3, Sla1-2, P32790; conditions: median of control spots 712
Lsb3, P43603 = target: T4, Lsb3, P43603; conditions: median of control spots 406
Myo5, Q04439 = target: T5, Myo5, Q04439; conditions: median of control spots 471
Pex13, P80667 = target: T6, Pex13, P80667; conditions: median of control spots 1341
Cdc25, P04821 = target: T7, Cdc25, P04821; conditions: median of control spots 969
Sla1-3, P32790 = target: T8, Sla1-3, P32790; conditions: median of control spots 5475
Bzz1-1, P38822 = target: T9, Bzz1-1, P38822; conditions: median of control spots 4446
Hof1, Q05080 = target: T10, Hof1, Q05080; conditions: median of control spots 4086
Bzz1-2, P38822 = target: T11, Bzz1-2, P38822; conditions: median of control spots 4538
Bem1-2, P29366 = conditions: median of control spots 4347
Bem1-2, P29366, sequence (P29366 139-227): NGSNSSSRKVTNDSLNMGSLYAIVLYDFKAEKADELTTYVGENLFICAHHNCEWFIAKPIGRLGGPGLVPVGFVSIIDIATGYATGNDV

Lsb4, P32793 = target: T12, Lsb4, P32793; conditions: median of control spots 397
Boi2, P39969 = target: T13, Boi2, P39969; conditions: median of control spots 1161
Pin3, Q06449 = target: T14, Pin3, Q06449; conditions: median of control spots 2171
Boi1, P38041 = target: T15, Boi1, P38041; conditions: median of control spots 1162
Abp1, P15891 = target: T16, Abp1, P15891; conditions: median of control spots 935
Bbc1, P47068 = target: T17, Bbc1, P47068; conditions: median of control spots 796
Nbp2, Q12163 = target: T18, Nbp2, Q12163; conditions: median of control spots 357
Fus1, P11710 = target: T19, Fus1, P11710; conditions: median of control spots 1200
Lsb1, P53281 = target: T20, Lsb1, P53281; conditions: median of control spots 388
Hse1, P38753 = target: T21, Hse1, P38753; conditions: median of control spots 1727

SPOT intensity (Rvs167, P39743) | SPOT intensity (GST) | SPOT intensity (Myo3, P36006) | SPOT intensity (Sho1, P40073) | SPOT intensity (Bem1-1, P29366) | SPOT intensity (Cyk3, Q07533) | SPOT intensity (Bud14, P27637) | SPOT intensity (Sla1-2, P32790) | SPOT intensity (Lsb3, P43603) | SPOT intensity (Myo5, Q04439) | SPOT intensity (Pex13, P80667) | SPOT intensity (Cdc25, P04821) | SPOT intensity (Sla1-3, P32790) | SPOT intensity (Bzz1-1, P38822) | SPOT intensity (Hof1, Q05080) | SPOT intensity (Bzz1-2, P38822) | SPOT intensity (Bem1-2, P29366) | SPOT intensity (Lsb4, P32793) | SPOT intensity (Boi2, P39969) | SPOT intensity (Pin3, Q06449) | further results | Binder
0 | 3 | 0 | 16 | 1 | 1 | 0 | 0 | 0 | 0 | 0 | 3 | 12 | 0 | 4 | 18 | 4 | 0 | 3 | 1 | SPOT intensity (Boi1, P38041): 0; SPOT intensity (Abp1, P15891): 161; SPOT intensity (Bbc1, P47068): 0; SPOT intensity (Nbp2, Q12163): 0; SPOT intensity (Fus1, P11710): 3; SPOT intensity (Lsb1, P53281): 0; SPOT intensity (Hse1, P38753): 12 | KKEKKPPKIPKKVYT
18 | 2 | 20 | 229 | 0 | 2 | 25 | 3 | 45 | 3 | 13 | 203 | 161 | 22 | 28 | 324 | 51 | 141 | 0 | 7 | SPOT intensity (Boi1, P38041): 15; SPOT intensity (Abp1, P15891): 564; SPOT intensity (Bbc1, P47068): 31; SPOT intensity (Nbp2, Q12163): 48; SPOT intensity (Fus1, P11710): 8; SPOT intensity (Lsb1, P53281): 8; SPOT intensity (Hse1, P38753): 157 | NLKKRPPTAPQRKIS
0 | 0 | 0 | 1320 | 0 | 0 | 0 | 0 | 6 | 0 | 47 | 0 | 0 | 0 | 2 | 0 | 0 | 0 | 0 | 0 | SPOT intensity (Boi1, P38041): 0; SPOT intensity (Abp1, P15891): 0; SPOT intensity (Bbc1, P47068): 0; SPOT intensity (Nbp2, Q12163): 0; SPOT intensity (Fus1, P11710): 0; SPOT intensity (Lsb1, P53281): 0; SPOT intensity (Hse1, P38753): 1 | DLFKPLPEPPTELGR
2280 | 1 | 31 | 38 | 0 | 1 | 1 | 0 | 877 | 0 | 364 | 4 | 0 | 0 | 5 | 0 | 0 | 1360 | 2 | 35 | SPOT intensity (Boi1, P38041): 0; SPOT intensity (Abp1, P15891): 109; SPOT intensity (Bbc1, P47068): 103; SPOT intensity (Nbp2, Q12163): 0; SPOT intensity (Fus1, P11710): 0; SPOT intensity (Lsb1, P53281): 243; SPOT intensity (Hse1, P38753): 2 | AATTSTPPLPRRRAT

Source: PMC2756588
